{"source": "patent US11643670B2", "about": "“Methods of enhancing chromosomal homologous recombination” (Massachusetts Institute of Technology, priority 2018, dated 2023)", "molecules": {"B1": {"name": "RAD51: recombinant human strand exchange protein RAD51 (Creative Biomart RAD51-134H), transcript variant 4 (protein, UniProt Q06609 2-339, looked up)", "DNA repair protein RAD51 …": "AMQMQLEANADTSVEEESFGPQPISRLEQCGINANDVKKLEEAGFHTVEAVAYAPKKELINIKGISEAKADKILAEAAKLVPMGFTTATEFHQRRSEIIQITTGSKELDKLLQGGIETGSITEMFGEFRTGKTQICHTLAVTCQLPIDRGGGEGKAMYIDTEGTFRPERLLAVAERYGLSGSDVLDNVAYARAFNTDHQTQLLYQASAMMVESRYALLIVDSATALYRTDYSGRGELSARQMHLARFLRMLLRLADEFGVAVVITNQVVAQVDGAAMFAADPKKPIGGNIIAHASTTRLYLRKGRGETRICKIYDSPCLPEAEAMFAINADGVGDAKD"}}, "system": "Chd2^R1684H locus", "test": "Genotyping of individual blastomeres of 2-cell embryos", "format": "cell-based, mouse", "conditions": "blastomeres collected at 24hpf, IVF strategy, co-injected with RAD51", "experimental": "Zygotes were prepared by IVF as described above and cultured until 24hpf in FHM at 37° C. and 5% CO2. Two-cell embryos were transferred 10 at a time into room temperature acidified Tyrode's solution. Embryos were monitored by microscopy and were transferred back to FHM once the zona pellucida was dissolved. Individual blastomeres were collected via mechanical dissociation with a glass micropipette and transferred to 4 μL nuclease-free water. Blastomeres were then lysed and processed for genotyping as previously described.\nAfter fertilization, the maternal and paternal pronuclei remain until the completion of S-phase, at which time the pronuclei fuse in preparation for mitosis. […] To begin to address the timing of zygotic ICHR, genotyping of individual blastomeres was performed in early 2-cell embryos generated through the IVF strategy and co-injected with RAD51. […] Because the blastomeres were collected early in the 2-cell stage, it is unlikely that all observed mosaicism resulted from editing events after the completion of mitosis. […]", "data": [{"molecule": "B1", "values": [{"measurement": "mosaicism in embryos with an ICHR event in at least one cell", "value": "4/6"}]}]}
